Source: paper PMC6237851, “A tumor-targeted trimeric 4-1BB-agonistic antibody induces potent anti-tumor immunity without systemic toxicity” (Nature Communications, 2018)

Biological target: the molecule itself
Assay: SDS-PAGE, reducing against non-reducing; m4-1BBL alone; about 40 kDa in reducing and about 70 kDa in non-reducing conditions (Supplementary Figure 3a)

B1: recombinant soluble mouse 4-1BBL (ligand, UniProt P41274 104-309, looked up)
chain: RTEPRPALTITTSPNLGTRENNADQVTPVSHIGCPNTTQQGSPVFAKLLAKNQASLCNTTLNWHSQDGAGSSYLSQGLRYEEDKKELVVDSPGLYYVFLELKLSPTFTNTGHKVQGWVSLVLQAKPQVDDFDNLALTVELFPCSMENKLVDRSWSQLLLLKAGHRLSVGLRAYLHGAQDAYRDWELSYPNTTSFGLFLVKPDNPWE
notes: 4-1BB ligand (4-1BBL, TNFSF9), mouse, recombinant soluble form; For the RICS imaging it was labelled with CF488A (Mix-n-Stain kit); also called m4-1BBL; 4-1BB-Ligand; source: bought: Biolegend (cat#754402)
stoichiometry N: 3
